Assay results: US20030199671A1, “Binding molecules for Fc-region polypeptides” (priority 2001, published 2003)
Where two headings read alike, the source gives them in different places.

Columns and labels:
human IgG1 = biological target: T1, human IgG1 (Homo sapiens, UniProt P01857); format: binding
T1 construct: all human subtypes derived from myeloma patients; purchased Calbiochem 400120; host or cells: myeloma patients
In short: (§1)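 Steps: dilute IgG in PBST or TBST; incubate with immobilized peptide 1-1.5 h, RT; collect unbound by centrifugation; measure A280; wash three times; elute with 0.1 M sodium bicarbonate pH 8.5 and/or 0.1 M sodium citrate pH 4.0 for 30-60 min and quantitate.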

bovine IgG = format: binding
In short: (§2)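 Percent bound = control mass minus unbound mass, with unbound IgG read at A280 after 1–1.5 h room-temperature incubation with the peptide resin in PBST pH 7.2 or TBST pH 7.5. Bound IgG was eluted 30–60 min with 0.1 M citrate pH 4.0 and/or bicarbonate pH 8.5. Recovery is given as percent of total load.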

mouse IgG = format: binding
In short: as §2

human IgG2 = biological target: T2, human IgG2 (Homo sapiens, UniProt P01859); format: binding
T2 construct: all human subtypes derived from myeloma patients; purchased Calbiochem 400122; host or cells: myeloma patients
T2 sequence (P01859 1-326 isoform P01859-1): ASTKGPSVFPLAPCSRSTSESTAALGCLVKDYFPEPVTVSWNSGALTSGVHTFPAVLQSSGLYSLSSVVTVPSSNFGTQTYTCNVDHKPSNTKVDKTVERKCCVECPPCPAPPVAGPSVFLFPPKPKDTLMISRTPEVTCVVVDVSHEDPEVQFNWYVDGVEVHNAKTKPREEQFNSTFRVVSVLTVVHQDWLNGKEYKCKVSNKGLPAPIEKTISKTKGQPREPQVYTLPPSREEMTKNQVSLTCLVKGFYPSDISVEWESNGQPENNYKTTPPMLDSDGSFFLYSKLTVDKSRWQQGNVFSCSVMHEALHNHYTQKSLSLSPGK
In short: (§3)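 Read-out is A280 of unbound IgG (1.4 mg/ml extinction coefficient), with percent bound derived against non-filtered or negative controls. Targets were incubated with immobilized peptides in PBST or TBST for 1-1.5 h at room temperature. Hydrolyzed Sepharose and immobilized Protein A serve as negative and positive controls.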

human IgG [1] = format: binding
In short: as §2

goat IgG = format: binding
In short: as §2

human IgG [2] = test: Dynamic (mini-column) binding capacity
Experimental: These media were used to determine the effect of ligand density on human IgG binding capacity in both static (filterplate) and dynamic (mini-column) modes with commercial immobilized recombinant Protein A (Repligen, IPA400) at a single density as control.
The IgG solution was loaded onto the column at a flow rate of 0.2 ml/minute (170 cm/hr). […] At the end of the loading period, the column was washed with PBS until the absorbance at 280 nm of the column eluant returned to baseline. […] Neutralizing the pH of the eluted fractions was unnecessary since the total IgG eluted was determined by total protein absorbance at 280 nm.
To establish total media capacities, IgG was loaded onto the columns until the absorbances of the column load and flow through streams were identical (loading to full capacity). After washing the column to baseline, bound IgG was eluted and the total amount captured from this elution fraction determined. The total capacity of the media (mg IgG/ml media) as total IgG captured divided by the column bed volume was calculated.
Additionally, column capacities at 10% breakthrough were calculated from the online A280 measurements of column flowthrough streams. The A280 curves obtained for the column of interest and for an equivalent “blank” column containing hydrolyzed Sepharose FF 4 media were aligned. The difference in areas between these curves (for a retained and non-retained target) from the time of injection to the time at which the A280 value for the column of interest had risen to 10% of the maximum A280 absorbance (100%) obtained for the load solution at 100% IgG capture saturation (10% breakthrough) was graphically integrated. A standard curve was used to relate the integrated area to mg IgG bound and capacity calculated as total IgG bound divided by column bed volume.

IgG4 = IgG4 (Homo sapiens, UniProt P01861); format: binding; parameters: all human subtypes derived from myeloma patients; purchased Calbiochem 400126; host or cells: myeloma patients
IgG4, sequence (P01861 1-327 isoform P01861-1): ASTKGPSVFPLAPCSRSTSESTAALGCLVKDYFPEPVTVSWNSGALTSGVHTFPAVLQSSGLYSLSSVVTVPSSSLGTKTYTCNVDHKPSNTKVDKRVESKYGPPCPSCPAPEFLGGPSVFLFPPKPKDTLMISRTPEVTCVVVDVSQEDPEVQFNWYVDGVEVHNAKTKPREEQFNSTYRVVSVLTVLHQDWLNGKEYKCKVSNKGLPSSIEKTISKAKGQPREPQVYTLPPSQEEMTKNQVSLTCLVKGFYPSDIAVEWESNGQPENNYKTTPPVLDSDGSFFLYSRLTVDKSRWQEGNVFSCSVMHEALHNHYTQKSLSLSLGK
In short: as §3

IgG3 = IgG3 (Homo sapiens, UniProt P01860); format: binding; parameters: all human subtypes derived from myeloma patients; purchased Calbiochem 400124; host or cells: myeloma patients
IgG3, sequence (P01860 1-377 isoform P01860-1): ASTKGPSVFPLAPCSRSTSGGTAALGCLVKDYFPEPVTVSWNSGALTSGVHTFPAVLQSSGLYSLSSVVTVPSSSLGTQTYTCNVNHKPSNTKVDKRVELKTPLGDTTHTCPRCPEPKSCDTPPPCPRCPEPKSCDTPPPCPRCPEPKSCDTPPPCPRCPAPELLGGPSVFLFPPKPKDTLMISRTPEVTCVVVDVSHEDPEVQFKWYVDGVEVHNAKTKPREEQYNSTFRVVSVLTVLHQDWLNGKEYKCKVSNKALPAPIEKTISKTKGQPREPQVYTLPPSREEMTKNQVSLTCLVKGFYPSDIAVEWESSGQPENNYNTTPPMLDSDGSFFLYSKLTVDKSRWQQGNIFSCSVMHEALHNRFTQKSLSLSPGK
In short: as §1

[3] = Table 9, immobilized peptide, 5.0 mg/ml resin load
[4] = Table 10, elution 0.1 M sodium bicarbonate buffer, pH 8.5
[5] = Table 10, elution 0.1 M sodium citrate buffer, pH 4.0
[6] = Table 13, average ligand density 1.8 μM/ml
[7] = Table 14, average ligand density 1.8 μM/ml

T1 sequence (P01857 1-330 isoform P01857-1): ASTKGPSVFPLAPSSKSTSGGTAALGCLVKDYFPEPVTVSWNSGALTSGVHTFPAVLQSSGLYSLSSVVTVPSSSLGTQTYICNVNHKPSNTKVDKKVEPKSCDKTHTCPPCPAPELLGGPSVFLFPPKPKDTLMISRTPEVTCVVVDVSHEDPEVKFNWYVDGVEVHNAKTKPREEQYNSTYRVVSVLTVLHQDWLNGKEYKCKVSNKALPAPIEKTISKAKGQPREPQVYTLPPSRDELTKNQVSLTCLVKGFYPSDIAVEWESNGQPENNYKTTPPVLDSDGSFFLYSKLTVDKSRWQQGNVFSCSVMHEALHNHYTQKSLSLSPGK

For “Prot. A: immobilized recombinant Protein A (RepliGen Corp., product no. IPA-400), positive control [reference compound]”, the “% IgG Capture - Batch Binding, Human IgG1” value (human IgG1; [3]) was 95%, the “Human IgG1 bdg % (% of Total Load)” value (human IgG1; Table 10, batch binding) was 93% and the “Human IgG1 elu pH 8.5 (% of Total Load)” value (human IgG1; [4]) was 2%. The “Human IgG1 elu pH 4.0 (% of Total Load)” value (human IgG1; [5]) was 79%, the “hIgG1 elution pH 2.5 (% of Total Load)” value (human IgG1; Table 13) was 80% and the “hIgG1 elution pH 3.0 (% of Total Load)” value (human IgG1; Table 13) was 80%. For the same substance, the “hIgG1 elution pH 3.5 (% of Total Load)” value (human IgG1; Table 13) was 86%, the “hIgG1 elution pH 4.5 (% of Total Load)” value (human IgG1; Table 13) was 29% and the “hIgG1 elution pH 5.5 (% of Total Load)” value (human IgG1; Table 13) was 3%. For the same substance, the “hIgG1 elution pH 9.0 (% of Total Load)” value (human IgG1; Table 13) was 3%, the “hIgG1 elution pH 9.5 (% of Total Load)” value (human IgG1; Table 13) was 3% and the “hIgG1 Bound (% of Total Load)” value (human IgG1; [6]) was 96%. The “% IgG Capture - Batch Binding, Bovine IgG” value (bovine IgG; Table 11, unfractionated IgG) was 72%, the “% IgG Capture - Batch Binding, Bovine IgG” value (bovine IgG; [7]) was 60% and the “% IgG Capture - Batch Binding, Mouse IgG” value (mouse IgG; Table 11, unfractionated IgG) was 77%. For the same substance, the “% IgG Capture - Batch Binding, Mouse IgG” value (mouse IgG; [7]) was 69%, the “% IgG Capture - Batch Binding, Human IgG2” value (human IgG2; [3]) was 92% and the “Human IgG2 bdg % (% of Total Load)” value (human IgG2; Table 10, batch binding) was 93%. The “Human IgG2 elu pH 8.5 (% of Total Load)” value (human IgG2; [4]) was 8%, the “Human IgG2 elu pH 4.0 (% of Total Load)” value (human IgG2; [5]) was 75% and the “hIgG2 elution pH 2.5 (% of Total Load)” value (human IgG2; Table 13) was 75%. The “hIgG2 elution pH 3.0 (% of Total Load)” value (human IgG2; Table 13) was 75%, the “hIgG2 elution pH 3.5 (% of Total Load)” value (human IgG2; Table 13) was 76% and the “hIgG2 elution pH 4.5 (% of Total Load)” value (human IgG2; Table 13) was 65%. For the same substance, the “hIgG2 elution pH 5.5 (% of Total Load)” value (human IgG2; Table 13) was 22%, the “hIgG2 elution pH 9.0 (% of Total Load)” value (human IgG2; Table 13) was 13% and the “hIgG2 elution pH 9.5 (% of Total Load)” value (human IgG2; Table 13) was 18%. The “hIgG2 Bound (% of Total Load)” value (human IgG2; [6]) was 85%, the “% IgG Capture - Batch Binding, Human IgG” value (human IgG [1]; Table 11, unfractionated IgG) was 86% and the “% IgG Capture - Batch Binding, Human IgG” value (human IgG [1]; [7]) was 81%. The “% IgG Capture - Batch Binding, Goat IgG” value (goat IgG; Table 11, unfractionated IgG) was 23%, the “% IgG Capture - Batch Binding, Goat IgG” value (goat IgG; [7]) was 20% and the “Capacity at 10% breakthrough as % of total dynamic capacity” value (human IgG [2]) was “about 75%”. The “Capacity (mg IgG/mL resin) 10% Breakthrough” value (human IgG [2]; Ligand Density not determined) was 12.9 mg IgG/mL resin, the “Capacity (mg IgG/mL resin) Total Dynamic” value (human IgG [2]; Ligand Density not determined) was 16.3 mg IgG/mL resin and the “% IgG Capture - Batch Binding, Human IgG4” value (IgG4; [3]) was 96%. The “Human IgG4 bdg % (% of Total Load)” value (IgG4; Table 10, batch binding) was 92%, the “Human IgG4 elu pH 8.5 (% of Total Load)” value (IgG4; [4]) was 2% and the “Human IgG4 elu pH 4.0 (% of Total Load)” value (IgG4; [5]) was 95%. For the same substance, the “hIgG4 elution pH 2.5 (% of Total Load)” value (IgG4; Table 13) was 70%, the “hIgG4 elution pH 3.0 (% of Total Load)” value (IgG4; Table 13) was 77% and the “hIgG4 elution pH 3.5 (% of Total Load)” value (IgG4; Table 13) was 87%. For the same substance, the “hIgG4 elution pH 4.5 (% of Total Load)” value (IgG4; Table 13) was 27%, the “hIgG4 elution pH 5.5 (% of Total Load)” value (IgG4; Table 13) was 6% and the “hIgG4 elution pH 9.0 (% of Total Load)” value (IgG4; Table 13) was 7%. The “hIgG4 elution pH 9.5 (% of Total Load)” value (IgG4; Table 13) was 8%, the “hIgG4 Bound (% of Total Load)” value (IgG4; [6]) was 89% and the “% IgG Capture - Batch Binding, Human IgG3” value (IgG3; [3]) was 1%. The “Human IgG3 bdg % (% of Total Load)” value (IgG3; Table 10, batch binding) was 5%, the “Human IgG3 elu pH 8.5 (% of Total Load)” value (IgG3; [4]) was 0% and the “Human IgG3 elu pH 4.0 (% of Total Load)” value (IgG3; [5]) was 0%. The “hIgG3 elution pH 2.5 (% of Total Load)” value (IgG3; Table 13) was 0%, the “hIgG3 elution pH 3.0 (% of Total Load)” value (IgG3; Table 13) was 0% and the “hIgG3 elution pH 3.5 (% of Total Load)” value (IgG3; Table 13) was 0%. For the same substance, the “hIgG3 elution pH 4.5 (% of Total Load)” value (IgG3; Table 13) was 0%, the “hIgG3 elution pH 5.5 (% of Total Load)” value (IgG3; Table 13) was 0% and the “hIgG3 elution pH 9.0 (% of Total Load)” value (IgG3; Table 13) was 0%. For the same substance, the “hIgG3 elution pH 9.5 (% of Total Load)” value (IgG3; Table 13) was 0% and the “hIgG3 Bound (% of Total Load)” value (IgG3; [6]) was 0%.
